The results in this text go back to publication PMC9721421, “DMSO-tolerant ornithine decarboxylase (ODC) tandem assay optimised for high-throughput screening” (Journal of Enzyme Inhibition and Medicinal Chemistry, 2022).

This data set concerns the molecule itself. Briefly: SEC; Superose 6 Increase 10/300 GL, 4 °C, 0.5 mL/min, running buffer 50 mM potassium pyrophosphate, 500 mM NaCl, 5% glycerol, 0.1% Tween 20, pH 7.5; elution compared with molecular weight standards; fractions checked by ODC tandem assay, Coomassie staining and western blot. (In general: In gel filtration, larger molecules generally elute earlier.)

B1: C-terminal Twin-Strep-tagged recombinant human ornithine decarboxylase (ODC) (enzyme, UniProt P11926 1-461, looked up)
chain: MNNFGNEEFDCHFLDEGFTAKDILDQKINEVSSSDDKDAFYVADLGDILKKHLRWLKALPRVTPFYAVKCNDSKAIVKTLAATGTGFDCASKTEIQLVQSLGVPPERIIYANPCKQVSQIKYAANNGVQMMTFDSEVELMKVARAHPKAKLVLRIATDDSKAVCRLSVKFGATLRTSRLLLERAKELNIDVVGVSFHVGSGCTDPETFVQAISDARCVFDMGAEVGFSMYLLDIGGGFPGSEDVKLKFEEITGVINPALDKYFPSDSGVRIIAEPGRYYVASAFTLAVNIIAKKIVLKEQTGSDDEDESSEQTFMYYVNDGVYGSFNCILYDHAHVKPLLQKRPKPDEKYYSSSIWGPTCDGLDRIVERCDLPEMHVGDWMLFENMGAYTVAAASTFNGFQRPTIYYVMSGPAWQLMQQFQNPDFPPEVEEQDASTLPVSCAWESGMKRHRAACASASINV
notes: Cloning sites may add a few linker residues between ODC and the 3C site; also called human ODC; ODC1; source: Expi293F cells, transiently transfected, purified (Strep-Tactin chromatography, size-exclusion chromatography); not shown: Avi tag (preceded by an HRV 3C protease site), C-terminal, kept; Twin-Strep, C-terminal, kept
As to B1, the stoichiometry N (in general, a count of units in the complex or per binding partner) was 2.
